The results in this text go back to article PMC5018465 (Biochimica et biophysica acta, 2016).

The series concerns the molecule itself. The experiment in a line: SEC-MALS. (In general: Size exclusion chromatography separates by hydrodynamic size, large species first.)

B1: αAΔ70–88 deletion mutant of human αA-crystallin (natural protein, UniProt P02489 1-173, looked up)
chain: MDVTIQHPWFKRTLGPFYPSRLFDQFFGEGLFEYDLLPFLSSTISPYYRQSLFRTVLDSGISEVRSDRDVQDDFVEIHGKHNERQDDHGYISREFHRRYRLPSNVDQSALSCSLSADGMLTFCGPKIQTGLDATHAERAIPVSREEKPTSAPSS
Turning to B1, the binding result is “binds”.

B2: αAΔ70–76 deletion mutant of human αA-crystallin (natural protein, UniProt P02489 1-173, looked up)
chain: MDVTIQHPWFKRTLGPFYPSRLFDQFFGEGLFEYDLLPFLSSTISPYYRQSLFRTVLDSGISEVRSDRDVKHFSPEDLTVKVQDDFVEIHGKHNERQDDHGYISREFHRRYRLPSNVDQSALSCSLSADGMLTFCGPKIQTGLDATHAERAIPVSREEKPTSAPSS
For the protein B2, the binding result is “binds”.
